Measurements from patent publication US20180072810A1 (published 2018).

Target: T1, cynomolgus PD-1 Fc fusion (cynomolgus monkey, UniProt B0LAJ3 25-170)
T1 construct: also called Cyno PD-1 (ELISA)
Experiment: ELISA on plate-bound cynomolgus PD-1 Fc fusion

T1 sequence (B0LAJ3 entry or part of it limits assumed, form in doubt): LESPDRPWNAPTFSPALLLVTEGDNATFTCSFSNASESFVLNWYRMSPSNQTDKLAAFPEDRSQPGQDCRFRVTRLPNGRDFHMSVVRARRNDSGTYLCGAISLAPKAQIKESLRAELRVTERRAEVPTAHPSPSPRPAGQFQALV

EC50: 0.07 nM
B1: Nivolumab (antibody, V domains shown)
VH: QVQLVESGGGVVQPGRSLRLDCKASGITFSNSGMHWVRQAPGKGLEWVAVIWYDGSKRYYADSVKGRFTISRDNSKNTLFLQMNSLRAEDTAVYYCATNDDYWGQGTLVTVSS
VL: EIVLTQSPATLSLSPGERATLSCRASQSVSSYLAWYQQKPGQAPRLLIYDASNRATGIPARFSGSGSGTDFTLTISSLEPEDFAVYYCQQSSNWPRTFGQGTKVEIK
